Assays:
[1] = target: T1, I59T human lysozyme (human) (UniProt P61626)
T1 sequence: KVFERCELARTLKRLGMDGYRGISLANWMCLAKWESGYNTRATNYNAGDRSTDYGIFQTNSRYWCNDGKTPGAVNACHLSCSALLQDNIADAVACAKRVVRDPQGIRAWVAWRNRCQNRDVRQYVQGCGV

[2] = target: amyloid β peptide Aβ(1–42) (UniProt P05067)

trypsin-activated α2M, sequence (P01023 whole entry, looked up): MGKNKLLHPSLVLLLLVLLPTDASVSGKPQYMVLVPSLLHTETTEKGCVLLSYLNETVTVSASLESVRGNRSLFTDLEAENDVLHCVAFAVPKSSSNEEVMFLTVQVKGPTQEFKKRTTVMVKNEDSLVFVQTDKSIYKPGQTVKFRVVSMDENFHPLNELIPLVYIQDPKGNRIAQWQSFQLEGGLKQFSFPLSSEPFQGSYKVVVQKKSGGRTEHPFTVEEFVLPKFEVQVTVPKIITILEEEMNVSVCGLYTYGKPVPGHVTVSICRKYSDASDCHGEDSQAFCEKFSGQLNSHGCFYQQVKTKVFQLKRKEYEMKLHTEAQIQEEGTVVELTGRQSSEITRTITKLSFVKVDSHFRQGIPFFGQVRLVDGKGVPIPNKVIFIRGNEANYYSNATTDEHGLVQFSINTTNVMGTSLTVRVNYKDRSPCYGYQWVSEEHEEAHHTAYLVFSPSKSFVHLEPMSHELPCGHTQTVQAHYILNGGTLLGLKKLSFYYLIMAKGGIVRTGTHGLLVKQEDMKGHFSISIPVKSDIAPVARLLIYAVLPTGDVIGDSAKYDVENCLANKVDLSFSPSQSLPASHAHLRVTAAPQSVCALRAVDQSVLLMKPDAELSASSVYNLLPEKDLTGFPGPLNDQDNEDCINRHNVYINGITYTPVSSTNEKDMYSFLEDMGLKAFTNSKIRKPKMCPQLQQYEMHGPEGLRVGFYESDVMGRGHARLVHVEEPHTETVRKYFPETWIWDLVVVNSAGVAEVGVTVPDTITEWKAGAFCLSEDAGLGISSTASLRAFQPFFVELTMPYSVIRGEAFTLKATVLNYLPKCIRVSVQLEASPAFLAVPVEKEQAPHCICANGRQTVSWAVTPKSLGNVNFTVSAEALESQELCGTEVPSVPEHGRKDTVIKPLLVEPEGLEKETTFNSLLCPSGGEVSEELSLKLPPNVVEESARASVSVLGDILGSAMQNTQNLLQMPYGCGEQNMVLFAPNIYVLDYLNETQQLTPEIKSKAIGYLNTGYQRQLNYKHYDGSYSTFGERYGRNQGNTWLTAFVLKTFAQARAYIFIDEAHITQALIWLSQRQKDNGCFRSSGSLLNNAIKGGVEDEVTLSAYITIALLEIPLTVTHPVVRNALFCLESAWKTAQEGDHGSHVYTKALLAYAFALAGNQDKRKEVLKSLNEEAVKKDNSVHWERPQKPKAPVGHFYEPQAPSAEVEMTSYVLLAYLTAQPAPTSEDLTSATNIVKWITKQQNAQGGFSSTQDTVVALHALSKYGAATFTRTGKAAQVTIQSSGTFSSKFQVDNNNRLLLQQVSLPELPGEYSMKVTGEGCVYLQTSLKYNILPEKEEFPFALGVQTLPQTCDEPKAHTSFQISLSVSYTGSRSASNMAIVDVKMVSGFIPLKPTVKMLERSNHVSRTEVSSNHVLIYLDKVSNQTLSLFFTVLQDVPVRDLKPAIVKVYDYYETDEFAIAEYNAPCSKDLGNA

trypsin-activated α2M (from UniProt P01023 24-1474) (complex)
decrease of ThT fluorescence at the endpoint of I59T lysozyme fibril formation, lysozyme-to-α2M 10:1 [1]: > 90%
suppression of ThT signal at the endpoint of Aβ(1–42) fibril formation, Aβ-to-α2M 10:1 [2]: > 80%

From PMC3581772
